Results published in US7063843 (OKLAHOMA MEDICAL RESEARCH FOUNDATION, dated 2006).

Tests used:
[1] = molecular target: T1, human protein C (human, UniProt P04070 43-461); assay: summary statement; the direct measurement was 125I-APC on HUVEC, and protein C displaced F1-APC equivalently to APC
T1 construct: also called PC

[2] = molecular target: T2, 125I-labeled activated protein C (human, UniProt P04070 43-197; P04070 212-461, radioiodinated with Na[125I] by Iodogen; positions not stated); assay: 125I-APC binding to HUVEC monolayers at 4 C, Scatchard analysis
T2 construct: Specific activity 1x10^4 cpm/ng
Procedure: At the indicated times, cells were washed and bound radioactivity was measured. […] After washing, bound radioactivity was measured. […] Specific binding was determined as described below.
Monolayers of HUVEC in 24-well microplates (Costar) (1×10⁵ cells per well) were washed twice with EDTA/PBS and once with ice-cold HBSS. […] After washing three times with ice-cold HBSS, cells were released with the EDTA buffer, and the bound radioactivity was measured in a gamma counter (Isodata 500). To determine non-specific, calcium-independent adsorption of radioactivity, the cells were washed with EDTA/PBS and residual radioactivity in the cell pellet was measured. Non-specific binding of radioactivity was consistently less than 5% of the specific binding. The data was analyzed using the Enzfitter program (Elsevier Biosoft, Cambridge, U.K.).

T2 sequence (P04070 43-197, chain 1 of 2): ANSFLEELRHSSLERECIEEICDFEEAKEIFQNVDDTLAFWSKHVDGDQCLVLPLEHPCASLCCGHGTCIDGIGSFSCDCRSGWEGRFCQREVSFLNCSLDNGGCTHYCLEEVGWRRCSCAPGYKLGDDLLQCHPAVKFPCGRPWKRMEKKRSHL
T2 sequence (P04070 212-461, chain 2 of 2): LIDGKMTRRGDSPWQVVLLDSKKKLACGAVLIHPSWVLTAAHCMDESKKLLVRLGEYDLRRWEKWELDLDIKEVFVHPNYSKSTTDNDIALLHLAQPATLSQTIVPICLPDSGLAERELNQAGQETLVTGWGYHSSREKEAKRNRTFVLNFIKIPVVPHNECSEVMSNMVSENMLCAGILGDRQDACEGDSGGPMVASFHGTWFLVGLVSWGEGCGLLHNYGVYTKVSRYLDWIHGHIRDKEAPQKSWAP
T1 sequence (P04070 43-461): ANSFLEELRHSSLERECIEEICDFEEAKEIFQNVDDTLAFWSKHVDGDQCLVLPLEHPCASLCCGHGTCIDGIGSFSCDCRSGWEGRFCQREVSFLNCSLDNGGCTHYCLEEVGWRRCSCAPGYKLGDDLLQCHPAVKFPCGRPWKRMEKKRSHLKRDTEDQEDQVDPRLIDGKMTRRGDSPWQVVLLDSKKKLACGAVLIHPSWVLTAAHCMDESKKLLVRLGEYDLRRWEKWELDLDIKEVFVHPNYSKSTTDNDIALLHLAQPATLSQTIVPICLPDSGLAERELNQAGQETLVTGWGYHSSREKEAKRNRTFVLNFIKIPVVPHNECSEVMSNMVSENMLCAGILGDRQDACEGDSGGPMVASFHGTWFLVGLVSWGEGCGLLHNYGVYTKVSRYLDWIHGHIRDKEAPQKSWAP

B1: endothelial cell protein C/activated protein C receptor (EPCR), human (receptor)
chain: FCSQDASDGLQRLHMLQISYFRDPYHVWYQGNASLGGHLTHVLEGPDTNTTIIQLQPLQEPESWARTQSGLQSYLLQFHGLVRLVHQERTLAFPLTIRCFLGCELPPEGSRAHVFFEVAVNGSSFVSFRPERALWQADTQVTSGVVTFTLQQLNAYNRTRYELREFLEDTCVQYVQKHISAENTKGSQTSRSYTSLVLGVLVGGFIIAGVAVGIFLCTGGRRC
notes: also called EPCR-1 (clone)
[1]
  Kd: 30 nM
[2]
  Kd: 30 nM
